In PMC4682084 (Scientific Reports, 2015):

Legend:
[1] = target: fully human monoclonal agonistic anti-TRAIL-R2 antibody KMTR2 (human)
[2] = target: T1, ecTRAIL-R2:Fc fusion protein (human, UniProt O14763); assay: SEC; antibody mixed with ecTRAIL-R2:Fc in PBS at a molar ratio of 1:1, 30 min 37 °C; Superdex 200 10/300 GL in D-PBS(-); conditions: both partners purified
T1 construct: TRAIL receptor 2 (TRAIL-R2, DR5), human, extracellular region, residues Ala54-Lys181; also called ecTRAIL-R2 fused with Fc; soluble TRAIL-R2 fused with the Fc region of IgG; source: CHO cells, purified (HiTrap rProtein A FF); not shown: Fc (human IgG1), C-terminal, kept

[3] = target: T2, endogenous TRAIL-R2 in Colo205 cells (human (endogenous in Colo205), UniProt O14763); assay: immunostaining of cells or tissue; Colo205 cells incubated with gel filtration fractionated monomeric antibody, 100 ng/mL, 1.5 h 37 °C; Alexa 488-labeled anti-human IgG Fab; confocal microscopy; conditions: one partner purified
T2 construct: TRAIL receptor 2 (TRAIL-R2, DR5), endogenous on the human colorectal adenocarcinoma cell line Colo205; also called DR5; membrane TRAIL-R2; source: endogenous, on Colo205 cells

[4] = target: T3, extracellular region of TRAIL-R2 (ecTRAIL-R2) (human, UniProt O14763); assay: SEC-MALS; ecTRAIL-R2 mixed with excess KMTR2-Fab, RT 1 h; Superdex 200 HR 10/30, 20 mM HEPES pH 7.2, 0.2 M NaCl; multi-angle light scattering (mini-DAWN); conditions: both partners purified
T3 construct: TRAIL receptor 2 (TRAIL-R2, DR5), human, extracellular region, residues Ala54-Lys181; also called DR5; source: CHO cells as ecTRAIL-R2:Fc fusion, purified (rProtein A), digested with enterokinase, cation-exchange chromatography; not shown: Fc (human IgG1), C-terminal, cleaved

“fully human monoclonal agonistic anti-TRAIL-R2 antibody KMTR2” was tested, and the inhibition of the proliferation of Colo205 cells (MTS), 1-100 ng/mL, without cross-linking reagent [1] was 6 to 7 ng/mL.

B1: KMTR2 LkN53R mutant (Asn53 to Arg in the light kappa chain) (antibody, V domains shown)
VH: QVQLVQSGAEMKKPGASVKVSCKTSGYTFTNYKINWVRQAPGQGLEWMGWMNPDTDSTGYPQKFQGRVTMTRNTSISTAYMELSSLRSEDTAVYYCARSYGSGSYYRDYYYGMDVWGQGTTVTVSS
VL: EIVLTQSPATLSLSPGERATLSCRASQSVSSYLAWYQQKPGQAPRLLIYDASRRATGIPARFSGSGSGTDFTLTISSLEPEDFAVYYCQQRSNWPLTFGGGTKVEIK
notes: as the heavy chain of m5; Fab part (Gln1-Ser226) in PDB 3X3F and 3X3G; as the light kappa chain of m5 (Glu1-Cys214 in PDB 3X3F and 3X3G) with Asn53 changed to Arg; Whole IgG made from the N5KG4-KMTR2 vector by site-directed mutagenesis; copies: 2 + 2
B1: binds [2]; binds [3].

B2: Fab fragment derived from KMTR2 (KMTR2-Fab) (Fab, V domains shown)
VH: QVQLVQSGAEMKKPGASVKVSCKTSGYTFTNYKINWVRQAPGQGLEWMGWMNPDTDSTGYPQKFQGRVTMTRNTSISTAYMELSSLRSEDTAVYYCARSYGSGSYYRDYYYGMDVWGQGTTVTVSS
VL: EIVLTQSPATLSLSPGERATLSCRASQSVSSYLAWYQQKPGQAPRLLIYDASNRATGIPARFSGSGSGTDFTLTISSLEPEDFAVYYCQQRSNWPLTFGGGTKVEIK
notes: heavy chain of KMTR2-Fab; light kappa chain of KMTR2; Fully human monoclonal antibody from KM mice; source: papain digestion of recombinant KMTR2, purified by cation-exchange chromatography
In the case of B2, the “stoichiometry N” value [4] is reported as 1.
